In patent US10738094B2, “Peptides and combination of peptides for use in immunotherapy against ovarian cancer and other cancers” (immatics biotechnologies GmbH, priority 2015, dated 2020):

Target: HLA-A*02:01 (Homo sapiens, UniProt P04439, D140Y/D185E/D98H/E176V/E277Q/G131W/G231S/I119V/I121R/I166T/I218V/L300P/L318F/N151K/N90K/P208A/P217A/Q86G/Q94H/R138H/R169H/T345S)
Assay: MHC binding assay (UV-ligand exchange, beta2m ELISA)
Details: binding to HLA-A*02:01 ranged by peptide exchange yield (UV-ligand exchange, β2m ELISA)
Procedure, shortened: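 Stabilised complexes were quantified via their β2m light chain: 100-fold-diluted monomers bound to streptavidin plates, then HRP anti-β2m at 2 ug/ml for 1 h at 37° C., TMB read at 450 nm. The value is the yield of UV-induced exchange of a photocleavable peptide for the candidate.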

With “377 (FLLDSSASV; listed as Homo sapiens) [compound 377]” the Peptide exchange was ““++” (≥20% = ++)”.

In the case of “531 (YTLPIASSIRL; listed as Homo sapiens) [compound 531]”, the Peptide exchange is reported as ““+++” (≥50 = +++)”.

In the case of “277 (LLPPLESLATV; listed as Homo sapiens) [compound 277]”, the Peptide exchange is reported as ““++” (≥20% = ++)”.

In the case of “93 (LLQAIKLYL; listed as Homo sapiens) [compound 93]”, the Peptide exchange is reported as ““++” (≥20% = ++)”.

For “177 (YLLPEEYTSTL; listed as Homo sapiens) [compound 177]”, the Peptide exchange was ““++++” (≥75% = ++++)”.

In the case of “599 (YLLNDASLISV; listed as Homo sapiens) [compound 599]”, the Peptide exchange is reported as ““+++” (≥50 = +++)”.

With “194 (ALPLFVITV; listed as Homo sapiens) [compound 194]” the Peptide exchange was ““+++” (≥50 = +++)”.

With “578 (FLDPGGPMMKL; listed as Homo sapiens) [compound 578]” the Peptide exchange was ““+++” (≥50 = +++)”.

With “115 (AIAGAGILYGV; listed as Homo sapiens) [compound 115]” the Peptide exchange was ““++” (≥20% = ++)”.

In the case of “71 (GILARIASV; listed as Homo sapiens) [compound 71]”, the Peptide exchange is reported as ““+++” (≥50 = +++)”.

With “466 (VLIANLEKL; listed as Homo sapiens) [compound 466]” the Peptide exchange was ““++++” (≥75% = ++++)”.

“442 (GLLGGGGVLGV; listed as Homo sapiens) [compound 442]” was tested, and the Peptide exchange was ““+++” (≥50 = +++)”.

For “241 (SLVEVNPAYSV; listed as Homo sapiens) [compound 241]”, the Peptide exchange was ““+++” (≥50 = +++)”.

In the case of “340 (ALLSMTFPL; listed as Homo sapiens) [compound 340]”, the Peptide exchange is reported as ““++++” (≥75% = ++++)”.

For “83 (ILAPTVMMI; listed as Homo sapiens) [compound 83]”, the Peptide exchange was ““+++” (≥50 = +++)”.

With “555 (YVLEGLKSV; listed as Homo sapiens) [compound 555]” the Peptide exchange was ““+++” (≥50 = +++)”.

In the case of “264 (SLQEQLHSV; listed as Homo sapiens) [compound 264]”, the Peptide exchange is reported as ““+++” (≥50 = +++)”.

For “520 (LAVHPSGVAL; listed as Homo sapiens) [compound 520]”, the Peptide exchange was ““+” (≥10% = +)”.

For “165 (SLLDEIRAV; listed as Homo sapiens) [compound 165]”, the Peptide exchange was ““+++” (≥50 = +++)”.

“13 (YLMDESLNL; listed as Homo sapiens) [compound 13]” was tested, and the Peptide exchange was ““+++” (≥50 = +++)”.

“303 (AILPQLFMV; listed as Homo sapiens) [compound 303]” was tested, and the Peptide exchange was ““++++” (≥75% = ++++)”.

With “391 (YVYPQRLNFV; listed as Homo sapiens) [compound 391]” the Peptide exchange was ““+++” (≥50 = +++)”.

“22 (IMEENPGIFAV; listed as Homo sapiens) [compound 22]” was tested, and the Peptide exchange was ““+++” (≥50 = +++)”.

For “545 (LLADLLHNV; listed as Homo sapiens) [compound 545]”, the Peptide exchange was ““+++” (≥50 = +++)”.

In the case of “50 (SLSELEALM; listed as Homo sapiens) [compound 50]”, the Peptide exchange is reported as ““+++” (≥50 = +++)”.

“231 (FLSPQQPPLLL; listed as Homo sapiens) [compound 231]” was tested, and the Peptide exchange was ““++” (≥20% = ++)”.

“405 (ALYDVFLEV; listed as Homo sapiens) [compound 405]” was tested, and the Peptide exchange was ““++” (≥20% = ++)”.

“302 (ALLQEGEVYSA; listed as Homo sapiens) [compound 302]” was tested, and the Peptide exchange was ““+++” (≥50 = +++)”.

“463 (SLVESHLSDQLTL; listed as Homo sapiens) [compound 463]” was tested, and the Peptide exchange was ““+++” (≥50 = +++)”.

With “198 (KTINKVPTV; listed as Homo sapiens) [compound 198]” the Peptide exchange was ““+++” (≥50 = +++)”.

“604 (SILDRDDIFV; listed as Homo sapiens) [compound 604]” was tested, and the Peptide exchange was ““+++” (≥50 = +++)”.

For “98 (LIIDQADIYL; listed as Homo sapiens) [compound 98]”, the Peptide exchange was ““+++” (≥50 = +++)”.

In the case of “358 (ALDEYTSEL; listed as Homo sapiens) [compound 358]”, the Peptide exchange is reported as ““++++” (≥75% = ++++)”.

With “353 (YLFEMDSSL; listed as Homo sapiens) [compound 353]” the Peptide exchange was ““++” (≥20% = ++)”.

With “450 (FMIDASVHPTL; listed as Homo sapiens) [compound 450]” the Peptide exchange was ““+++” (≥50 = +++)”.

In the case of “282 (LLADVVPTT; listed as Homo sapiens) [compound 282]”, the Peptide exchange is reported as ““+++” (≥50 = +++)”.

In the case of “51 (LLPDLEFYV; listed as Homo sapiens) [compound 51]”, the Peptide exchange is reported as ““++++” (≥75% = ++++)”.

With “495 (FIFSEKPVFV; listed as Homo sapiens) [compound 495]” the Peptide exchange was ““+++” (≥50 = +++)”.

With “171 (LLLPLQILL; listed as Homo sapiens) [compound 171]” the Peptide exchange was ““+++” (≥50 = +++)”.

“152 (ILFEDIFDV; listed as Homo sapiens) [compound 152]” was tested, and the Peptide exchange was ““+++” (≥50 = +++)”.

“459 (ALITEVVRL; listed as Homo sapiens) [compound 459]” was tested, and the Peptide exchange was ““++” (≥20% = ++)”.

With “85 (KMSELRVTL; listed as Homo sapiens) [compound 85]” the Peptide exchange was ““+++” (≥50 = +++)”.

“509 (FLFDTKPLIV; listed as Homo sapiens) [compound 509]” was tested, and the Peptide exchange was ““+++” (≥50 = +++)”.

“468 (YLRSVGDGETV; listed as Homo sapiens) [compound 468]” was tested, and the Peptide exchange was ““+++” (≥50 = +++)”.

With “252 (LLIGTDVSL; listed as Homo sapiens) [compound 252]” the Peptide exchange was ““+++” (≥50 = +++)”.

In the case of “333 (FLPDANSSV; listed as Homo sapiens) [compound 333]”, the Peptide exchange is reported as ““++” (≥20% = ++)”.

With “315 (YLQDVVEQA; listed as Homo sapiens) [compound 315]” the Peptide exchange was ““+++” (≥50 = +++)”.

With “574 (YLLQEPPRTV; listed as Homo sapiens) [compound 574]” the Peptide exchange was ““++” (≥20% = ++)”.

For “266 (KITDTLIHL; listed as Homo sapiens) [compound 266]”, the Peptide exchange was ““+++” (≥50 = +++)”.

For “367 (SLQNHNHQL; listed as Homo sapiens) [compound 367]”, the Peptide exchange was ““+++” (≥50 = +++)”.

In the case of “181 (LLWAGTAFQV; listed as Homo sapiens) [compound 181]”, the Peptide exchange is reported as ““+++” (≥50 = +++)”.

In the case of “478 (YLLHEKLNL; listed as Homo sapiens) [compound 478]”, the Peptide exchange is reported as ““+++” (≥50 = +++)”.

With “592 (RLLSAAENFL; listed as Homo sapiens) [compound 592]” the Peptide exchange was ““+++” (≥50 = +++)”.

“289 (VLLEIEDLQV; listed as Homo sapiens) [compound 289]” was tested, and the Peptide exchange was ““++++” (≥75% = ++++)”.

“55 (SLLDLETLSL; listed as Homo sapiens) [compound 55]” was tested, and the Peptide exchange was ““++++” (≥75% = ++++)”.

In the case of “539 (ALFDAQAQV; listed as Homo sapiens) [compound 539]”, the Peptide exchange is reported as ““+++” (≥50 = +++)”.

For “179 (KVLNELYTV; listed as Homo sapiens) [compound 179]”, the Peptide exchange was ““+++” (≥50 = +++)”.

For “1 (SLMEPPAVLLL; listed as Homo sapiens) [compound 1]”, the Peptide exchange was ““+++” (≥50 = +++)”.

For “394 (LLAVIGGLVYL; listed as Homo sapiens) [compound 394]”, the Peptide exchange was ““+++” (≥50 = +++)”.

For “78 (SLFSSLEPQIQPV; listed as Homo sapiens) [compound 78]”, the Peptide exchange was ““+++” (≥50 = +++)”.

For “137 (TLVLTLPTV; listed as Homo sapiens) [compound 137]”, the Peptide exchange was ““++++” (≥75% = ++++)”.

For “524 (ALIENLTHQI; listed as Homo sapiens) [compound 524]”, the Peptide exchange was ““++” (≥20% = ++)”.

In the case of “551 (KLYESLLPFA; listed as Homo sapiens) [compound 551]”, the Peptide exchange is reported as ““+++” (≥50 = +++)”.

With “399 (YLFEPLYHV; listed as Homo sapiens) [compound 399]” the Peptide exchange was ““+++” (≥50 = +++)”.

For “437 (SMAPGLVIQAV; listed as Homo sapiens) [compound 437]”, the Peptide exchange was ““+++” (≥50 = +++)”.

With “191 (LLQEGQALEYV; listed as Homo sapiens) [compound 191]” the Peptide exchange was ““++” (≥20% = ++)”.

For “408 (VLDDSIYLV; listed as Homo sapiens) [compound 408]”, the Peptide exchange was ““++” (≥20% = ++)”.

With “21 (VLDELDMEL; listed as Homo sapiens) [compound 21]” the Peptide exchange was ““++” (≥20% = ++)”.

“69 (FQLDPSSGVLVTV; listed as Homo sapiens) [compound 69]” was tested, and the Peptide exchange was ““+++” (≥50 = +++)”.

With “253 (GLDAATATV; listed as Homo sapiens) [compound 253]” the Peptide exchange was ““++” (≥20% = ++)”.

“370 (SLLQDLVSV; listed as Homo sapiens) [compound 370]” was tested, and the Peptide exchange was ““+++” (≥50 = +++)”.

“132 (LLVEQPPLAGV; listed as Homo sapiens) [compound 132]” was tested, and the Peptide exchange was ““+++” (≥50 = +++)”.

With “382 (ALQNYIKEA; listed as Homo sapiens) [compound 382]” the Peptide exchange was ““++” (≥20% = ++)”.

“397 (YLFGERLLEC; listed as Homo sapiens) [compound 397]” was tested, and the Peptide exchange was ““+++” (≥50 = +++)”.
